The nature of data set [1]: peptide treatment of non-tumor-bearing mice. It counts as in vivo. The method, then:
To further determine the impact of peptide treatment on mouse physiology, non-tumor-bearing mice were treated with K59-78^TAT or K90-114^TAT.

The target in data set [2] is T1, human voltage-gated potassium channel subfamily H member 5 (KCNH5, EAG2) (human, UniProt Q8NCM2 1-988).
T1 construct: Full length EAG2 expressed in HEK293T cells and tested by co-IP from lysates; This id also stands for endogenous human EAG2 in lysates of GBM cells and of human fetal neural progenitor cells; also called full length EAG2
T1 sequence: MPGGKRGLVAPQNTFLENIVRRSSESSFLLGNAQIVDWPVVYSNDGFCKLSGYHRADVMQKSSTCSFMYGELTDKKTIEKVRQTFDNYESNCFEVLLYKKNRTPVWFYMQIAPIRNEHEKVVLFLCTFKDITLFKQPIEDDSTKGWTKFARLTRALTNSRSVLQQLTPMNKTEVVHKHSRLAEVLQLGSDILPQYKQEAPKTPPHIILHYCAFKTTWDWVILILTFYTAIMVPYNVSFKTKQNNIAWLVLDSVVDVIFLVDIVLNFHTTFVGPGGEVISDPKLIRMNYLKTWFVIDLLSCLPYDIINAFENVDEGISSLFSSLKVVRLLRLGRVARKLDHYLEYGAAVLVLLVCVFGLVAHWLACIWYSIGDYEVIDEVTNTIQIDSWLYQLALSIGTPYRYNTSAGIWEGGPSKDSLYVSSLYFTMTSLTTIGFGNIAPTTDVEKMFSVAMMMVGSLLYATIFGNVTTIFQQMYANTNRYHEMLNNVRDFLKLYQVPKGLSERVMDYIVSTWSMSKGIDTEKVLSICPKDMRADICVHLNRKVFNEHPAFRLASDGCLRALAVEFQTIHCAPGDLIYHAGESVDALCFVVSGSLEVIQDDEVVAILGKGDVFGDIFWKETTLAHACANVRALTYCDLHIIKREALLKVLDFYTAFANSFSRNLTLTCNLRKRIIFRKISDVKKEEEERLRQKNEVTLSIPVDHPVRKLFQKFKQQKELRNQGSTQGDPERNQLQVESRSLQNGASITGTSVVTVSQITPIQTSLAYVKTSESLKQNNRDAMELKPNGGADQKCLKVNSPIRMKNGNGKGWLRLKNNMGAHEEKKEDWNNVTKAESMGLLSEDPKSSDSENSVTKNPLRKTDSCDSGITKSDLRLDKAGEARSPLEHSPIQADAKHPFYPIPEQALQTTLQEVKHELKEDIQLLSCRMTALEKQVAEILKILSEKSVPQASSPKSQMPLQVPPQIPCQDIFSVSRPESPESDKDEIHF
In words: co-IP of overexpressed proteins in HEK293T cells.

For data set [3], the target named is T1, human voltage-gated potassium channel …. Description: co-IP in HEK293T cells (FIG. 26).
Experimental: Co-IPs of overexpressed proteins are performed using HEK293T cells.
The target is the same in data set [4]. Description: co-IP in HEK293T cells.

No end group written: not given here.

As for “GRKKRRQRRRPQGSGSGSYAAGKAEVVLGNIIKKKGWRRSSLV [K90-114^TAT]”, the “pathological features of internal organs (heart, kidney, liver, lung)” value in data set [1] is “did not reveal pathological features”. In addition, in data set [1] (K59-78^TAT versus K90-114^TAT), the body weight result is reported as “comparable body weight” and the survival entry was “comparable”.

B1: Kvß2 truncation mutant f1 (1-158 aa) (other)
chain: MYPESTTGSPARLSLRQTGSPGMIYSTRYGSPKRQLQFYRNLGKSGLRVSCLGLGTWVTFGGQITDEMAEQLMTLAYDNGINLFDTAEVYAAGKAEVVLGNIIKKKGWRRSSLVITTKIFWGGKAETERGLSRKHIIEGLKASLERLQLEYVDVVFAN
notes: Expressed in HEK293T cells
As for B1, in data set [2], the binding result is “binds”.

B2: Kvß2 truncation mutant f9 (1-355 aa) (other)
chain: MYPESTTGSPARLSLRQTGSPGMIYSTRYGSPKRQLQFYRNLGKSGLRVSCLGLGTWVTFGGQITDEMAEQLMTLAYDNGINLFDTAEVYAAGKAEVVLGNIIKKKGWRRSSLVITTKIFWGGKAETERGLSRKHIIEGLKASLERLQLEYVDVVFANRPDPNTPMEETVRAMTHVINQGMAMYWGTSRWSSMEIMEAYSVARQFNLTPPICEQAEYHMFQREKVEVQLPELFHKIGVGAMTWSPLACGIVSGKYDSGIPPYSRASLKGYQWLKDKILSEEGRRQQAKLKELQAIAERLGCTLPQLAIAWCLRNEGVSSVLLGASNADQLMENIGAIQVLPKLSSSIIHEIDSIL
notes: Expressed in HEK293T cells
In the case of B2, in data set [2], the binding result is recorded as “no binding”.

B3: Kvß2 truncation mutant f4 (79-158 aa) (other)
chain: NGINLFDTAEVYAAGKAEVVLGNIIKKKGWRRSSLVITTKIFWGGKAETERGLSRKHIIEGLKASLERLQLEYVDVVFAN
notes: Expressed in HEK293T cells
For B3, the binding result in data set [3] was “binds”.

B4: Kvß2 truncation mutant f2 (79-316 aa) (other)
chain: NGINLFDTAEVYAAGKAEVVLGNIIKKKGWRRSSLVITTKIFWGGKAETERGLSRKHIIEGLKASLERLQLEYVDVVFANRPDPNTPMEETVRAMTHVINQGMAMYWGTSRWSSMEIMEAYSVARQFNLTPPICEQAEYHMFQREKVEVQLPELFHKIGVGAMTWSPLACGIVSGKYDSGIPPYSRASLKGYQWLKDKILSEEGRRQQAKLKELQAIAERLGCTLPQLAIAWCLRNEG
notes: Expressed in HEK293T cells
Consider B4, for which the binding result in data set [3] is listed as “binds”.

B5: Kvß2 truncation mutant f8 (1-342 aa) (other)
chain: MYPESTTGSPARLSLRQTGSPGMIYSTRYGSPKRQLQFYRNLGKSGLRVSCLGLGTWVTFGGQITDEMAEQLMTLAYDNGINLFDTAEVYAAGKAEVVLGNIIKKKGWRRSSLVITTKIFWGGKAETERGLSRKHIIEGLKASLERLQLEYVDVVFANRPDPNTPMEETVRAMTHVINQGMAMYWGTSRWSSMEIMEAYSVARQFNLTPPICEQAEYHMFQREKVEVQLPELFHKIGVGAMTWSPLACGIVSGKYDSGIPPYSRASLKGYQWLKDKILSEEGRRQQAKLKELQAIAERLGCTLPQLAIAWCLRNEGVSSVLLGASNADQLMENIGAIQVLPK
notes: Expressed in HEK293T cells
With B5, the binding result in data set [2] is “binds”.

B6: Kvβ2 isoform 2 (other, human, UniProt Q13303-2 1-353, looked up)
chain: MYPESTTGSPARLSLRQTGSPGMIYRNLGKSGLRVSCLGLGTWVTFGGQITDEMAEQLMTLAYDNGINLFDTAEVYAAGKAEVVLGNIIKKKGWRRSSLVITTKIFWGGKAETERGLSRKHIIEGLKASLERLQLEYVDVVFANRPDPNTPMEETVRAMTHVINQGMAMYWGTSRWSSMEIMEAYSVARQFNLTPPICEQAEYHMFQREKVEVQLPELFHKIGVGAMTWSPLACGIVSGKYDSGIPPYSRASLKGYQWLKDKILSEEGRRQQAKLKELQAIAERLGCTLPQLAIAWCLRNEGVSSVLLGASNADQLMENIGAIQVLPKLSSSIIHEIDSILGNKPYSKKDYRS
notes: Only the isoform number is printed; Whether it matches the UniProt isoform numbering is not confirmed
Turning to B6, in data set [4], the binding result is “no binding”.

B7: Kvß2 truncation mutant f3 (239-367 aa) (other)
chain: GAMTWSPLACGIVSGKYDSGIPPYSRASLKGYQWLKDKILSEEGRRQQAKLKELQAIAERLGCTLPQLAIAWCLRNEGVSSVLLGASNADQLMENIGAIQVLPKLSSSIIHEIDSILGNKPYSKKDYRS
notes: Expressed in HEK293T cells
Take B7: the binding result in data set [2] was “no binding”.

B8: Kvß2 truncation mutant f5 (239-316 aa) (other)
chain: GAMTWSPLACGIVSGKYDSGIPPYSRASLKGYQWLKDKILSEEGRRQQAKLKELQAIAERLGCTLPQLAIAWCLRNEG
notes: Expressed in HEK293T cells
Consider B8, for which the binding result in data set [2] is recorded as “no binding”.

B9: Kvß2 truncation mutant f7 (1-316 aa) (other)
chain: MYPESTTGSPARLSLRQTGSPGMIYSTRYGSPKRQLQFYRNLGKSGLRVSCLGLGTWVTFGGQITDEMAEQLMTLAYDNGINLFDTAEVYAAGKAEVVLGNIIKKKGWRRSSLVITTKIFWGGKAETERGLSRKHIIEGLKASLERLQLEYVDVVFANRPDPNTPMEETVRAMTHVINQGMAMYWGTSRWSSMEIMEAYSVARQFNLTPPICEQAEYHMFQREKVEVQLPELFHKIGVGAMTWSPLACGIVSGKYDSGIPPYSRASLKGYQWLKDKILSEEGRRQQAKLKELQAIAERLGCTLPQLAIAWCLRNEG
notes: Expressed in HEK293T cells
As to B9, the binding result in data set [2] was “binds”.

B10: Kvβ2 isoform 5 (other, human, UniProt Q13303-5 1-395, looked up)
chain: MYPESTTGSPARLSLRQTGSPGMIYSTRYGSPKRQLQFYRNLGKSGLRVSCLGLGTWVTFGGQITDEMAEQLMTLAYDNGINLFDTAEVYAAGKAEVVLGNIIKKKGWRRSSLVITTKIFWGGKAETERGLSRKHIIEGLKASLERLQLEYVDVVFANRPDPNTPMEETVRAMTHVINQGMAMYWGTSRWSSMEIMEAYSVARQFNLTPPICEQAEYHMFQREKVEVQLPELFHKIGVGAMTWSPLACGIVSGKYDSGIPPYSRASLKGYQWLKDKILSEEGRRQQAKLKELQAIAERLGCTLPQLAIAWCLRNEGVSSVLLGASNADQLMENIGAIQVRVRGPAGQRAHPSPSPVQCILPGSSCVPGSVLGTQDAPVNHQSCAPGELAFQQEQT
notes: as for B6
B10: the binding result in data set [4] is given as “no binding”.

B11: Kvβ2 isoform 3 (other, human, UniProt Q13303-3 1-415, looked up)
chain: MLSMTYSESLRSVSSRCHSEWALHPVRQTDTLELQRLREVRAAAQARNMESFLRMHGLSLDGCTAQRTGMKYRNLGKSGLRVSCLGLGTWVTFGGQITDEMAEQLMTLAYDNGINLFDTAEVYAAGKAEVVLGNIIKKKGWRRSSLVITTKIFWGGKAETERGLSRKHIIEGLKASLERLQLEYVDVVFANRPDPNTPMEGDPFSSSKSRTFIIEETVRAMTHVINQGMAMYWGTSRWSSMEIMEAYSVARQFNLTPPICEQAEYHMFQREKVEVQLPELFHKIGVGAMTWSPLACGIVSGKYDSGIPPYSRASLKGYQWLKDKILSEEGRRQQAKLKELQAIAERLGCTLPQLAIAWCLRNEGVSSVLLGASNADQLMENIGAIQVLPKLSSSIIHEIDSILGNKPYSKKDYRS
notes: as for B6
For B11, in data set [4], the binding result was “no binding”.

B12: Kvß2 isoform 4 (other)
chain: MAEQLMTLAYDNGINLFDTAEVYAAGKAEVVLGNIIKKKGWRRSSLVITTKIFWGGKAETERGLSRKHIIEGLKASLERLQLEYVDVVFANRPDPNTPMEETVRAMTHVINQGMAMYWGTSRWSSMEIMEAYSVARQFNLTPPICEQAEYHMFQREKVEVQLPELFHKIGVGAMTWSPLACGIVSGKYDSGIPPYSRASLKGYQWLKDKILSEEGRRQQAKLKELQAIAERLGCTLPQLAIAWCLRNEGVSSVLLGASNADQLMENIGAIQVLPKLSSSIIHEIDSILGNKPYSKKDYRS
notes: Expressed in HEK293T cells; also called Kvβ2 isoform 4; Kvß2 splice isoform 4
B12: the binding result in data set [4] was “binds”.

B13: Kvß2 truncation mutant f6 (317-367 aa) (other)
chain: VSSVLLGASNADQLMENIGAIQVLPKLSSSIIHEIDSILGNKPYSKKDYRS
notes: Expressed in HEK293T cells
With B13, the binding result in data set [2] is listed as “no binding”.
